# Assay results: the RNAGym collection of RNA variant scans (doi:10.1093/molbev/msab373)
# B1: Azoarcus group I ribozyme (parent)
# chain: GUGCCUUGCGCCGGGAAACCACGCAAGGGAUGGUGUCAAAUUCGGCGAAACCUAAGCGCCCGCCCGGGCGUAUGGCAACGCCGAGCCAAGCUUCGGCGCCUGCGCCGAUGAAGGUGUAGAGACUAGACGGCACCCACCUAAGGCAAACGCUAUGGUGAAGGCAUAGUCCAGGGAGUGGCGAAAGUCACACAAACCGG
# Variants of: B1
# Test: reverse-splicing fitness (ratio to wild type); higher = more active; in vitro selection; Mg2+ level not given
# Summary of the method: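 An in vitro group I ribozyme library with randomized positions was T7-transcribed and gel-purified. In triplicate, 10 pmol RNA in EPPS pH 7.5 was reacted with 50 pmoles of a 30-nt RNA substrate for 1 h at 37 °C across several added MgCl2 levels (1–48 mM), then stopped with EDTA. Products were reverse transcribed from a substrate-complementary primer, PCR-amplified and sequenced (HiSeq 4000). Fitness is a variant's read proportion after selection over that before, normalised to wild type.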
row,Variant,reverse-splicing fitness
1,GUGCCUUGCGCCGGGAAACCACGCAAGGGAUGGUGUCAAAUUCGGCGAAACCUAAGCGCCCGCCCGGGCGUAUGGCAACGCUGAGCCAAGCUUCGGCGCCUGCGCCGAUGCAGGUGUAGUGACUAGACGGCACCCACCUAAGGCCAACGAUAUGGUGAAGGCAUAGUCCAGGGAGGGGCGAAAGUCACACAAACCGG [C82U A111C A120U A145C C150A U176G],0.00265
2,GUGCCUUGCGCCGGGAAACCACGCAAGGGAUGGUGUCAAAUUCGGCGAAACCUAAGCGCCCGCCCGGGCGUAUGGCAACGCUGAGCCAAGCUUCGGCGCCUGCGCCGAUGCAGGUGUAGUGACUAGACGGCACCCACCUAAGGCCAACGGUAUGGUGAAGGCAUAGUCCAGGGAGUGGCGAAAGUCACACAAACCGG [C82U A111C A120U A145C C150G],0.00528
3,GUGCCUUGCGCCGGGAAACCACGCAAGGGAUGGUGUCAAAUUCGGCGAAACCUAAGCGCCCGCCCGGGCGUAUGGCAACGCUGAGCCAAGCUUCGGCGCCUGCGCCGAUGCAGGUGUAGUGACUAGACGGCACCCACCUAAGGCCAACGGUAUGGUGAAGGCAUAGUCAAGGGAGUGGCGAAAGUCACACAAACCGG [C82U A111C A120U A145C C150G C169A],0.00271
4,GUGCCUUGCGCCGGGAAACCACGCAAGGGAUGGUGUCAAAUUCGGCGAAACCUAAGCGCCCGCCCGGGCGUAUGGCAACGCUGAGCCAAGCUUCGGCGCCUGCGCCGAUGCAGGUGUAGUGACUAGACGGCACCCACCUAAGGCCAACGGUAUGGUGAAGGCAUAGUCAAGGGAGAGGCGAAAGUCACACAAACCGG [C82U A111C A120U A145C C150G C169A U176A],0.00289
5,GUGCCUUGCGCCGGGAAACCACGCAAGGGAUGGUGUCAAAUUCGGCGAAACCUAAGCGCCCGCCCGGGCGUAUGGCAACGCUGAGCCAAGCUUCGGCGCCUGCGCCGAUGCAGGUGUAGUGACUAGACGGCACCCACCUAAGGCCAACGGUAUGGUGAAGGCAUAGUCAAGGGAGCGGCGAAAGUCACACAAACCGG [C82U A111C A120U A145C C150G C169A U176C],0.00245
6,GUGCCUUGCGCCGGGAAACCACGCAAGGGAUGGUGUCAAAUUCGGCGAAACCUAAGCGCCCGCCCGGGCGUAUGGCAACGCUGAGCCAAGCUUCGGCGCCUGCGCCGAUGCAGGUGUAGUGACUAGACGGCACCCACCUAAGGCCAACGGUAUGGUGAAGGCAUAGUCAAGGGAGGGGCGAAAGUCACACAAACCGG [C82U A111C A120U A145C C150G C169A U176G],0.0024
7,GUGCCUUGCGCCGGGAAACCACGCAAGGGAUGGUGUCAAAUUCGGCGAAACCUAAGCGCCCGCCCGGGCGUAUGGCAACGCUGAGCCAAGCUUCGGCGCCUGCGCCGAUGCAGGUGUAGUGACUAGACGGCACCCACCUAAGGCCAACGGUAUGGUGAAGGCAUAGUCGAGGGAGUGGCGAAAGUCACACAAACCGG [C82U A111C A120U A145C C150G C169G],0.00351
8,GUGCCUUGCGCCGGGAAACCACGCAAGGGAUGGUGUCAAAUUCGGCGAAACCUAAGCGCCCGCCCGGGCGUAUGGCAACGCUGAGCCAAGCUUCGGCGCCUGCGCCGAUGCAGGUGUAGUGACUAGACGGCACCCACCUAAGGCCAACGGUAUGGUGAAGGCAUAGUCGAGGGAGAGGCGAAAGUCACACAAACCGG [C82U A111C A120U A145C C150G C169G U176A],0.0028
9,GUGCCUUGCGCCGGGAAACCACGCAAGGGAUGGUGUCAAAUUCGGCGAAACCUAAGCGCCCGCCCGGGCGUAUGGCAACGCUGAGCCAAGCUUCGGCGCCUGCGCCGAUGCAGGUGUAGUGACUAGACGGCACCCACCUAAGGCCAACGGUAUGGUGAAGGCAUAGUCGAGGGAGCGGCGAAAGUCACACAAACCGG [C82U A111C A120U A145C C150G C169G U176C],0.00262
10,GUGCCUUGCGCCGGGAAACCACGCAAGGGAUGGUGUCAAAUUCGGCGAAACCUAAGCGCCCGCCCGGGCGUAUGGCAACGCUGAGCCAAGCUUCGGCGCCUGCGCCGAUGCAGGUGUAGUGACUAGACGGCACCCACCUAAGGCCAACGGUAUGGUGAAGGCAUAGUCGAGGGAGGGGCGAAAGUCACACAAACCGG [C82U A111C A120U A145C C150G C169G U176G],0.00241
11,GUGCCUUGCGCCGGGAAACCACGCAAGGGAUGGUGUCAAAUUCGGCGAAACCUAAGCGCCCGCCCGGGCGUAUGGCAACGCUGAGCCAAGCUUCGGCGCCUGCGCCGAUGCAGGUGUAGUGACUAGACGGCACCCACCUAAGGCCAACGGUAUGGUGAAGGCAUAGUCUAGGGAGUGGCGAAAGUCACACAAACCGG [C82U A111C A120U A145C C150G C169U],0.00396
12,GUGCCUUGCGCCGGGAAACCACGCAAGGGAUGGUGUCAAAUUCGGCGAAACCUAAGCGCCCGCCCGGGCGUAUGGCAACGCUGAGCCAAGCUUCGGCGCCUGCGCCGAUGCAGGUGUAGUGACUAGACGGCACCCACCUAAGGCCAACGGUAUGGUGAAGGCAUAGUCUAGGGAGAGGCGAAAGUCACACAAACCGG [C82U A111C A120U A145C C150G C169U U176A],0.00332
13,GUGCCUUGCGCCGGGAAACCACGCAAGGGAUGGUGUCAAAUUCGGCGAAACCUAAGCGCCCGCCCGGGCGUAUGGCAACGCUGAGCCAAGCUUCGGCGCCUGCGCCGAUGCAGGUGUAGUGACUAGACGGCACCCACCUAAGGCCAACGGUAUGGUGAAGGCAUAGUCUAGGGAGCGGCGAAAGUCACACAAACCGG [C82U A111C A120U A145C C150G C169U U176C],0.00284
14,GUGCCUUGCGCCGGGAAACCACGCAAGGGAUGGUGUCAAAUUCGGCGAAACCUAAGCGCCCGCCCGGGCGUAUGGCAACGCUGAGCCAAGCUUCGGCGCCUGCGCCGAUGCAGGUGUAGUGACUAGACGGCACCCACCUAAGGCCAACGGUAUGGUGAAGGCAUAGUCUAGGGAGGGGCGAAAGUCACACAAACCGG [C82U A111C A120U A145C C150G C169U U176G],0.00217
15,GUGCCUUGCGCCGGGAAACCACGCAAGGGAUGGUGUCAAAUUCGGCGAAACCUAAGCGCCCGCCCGGGCGUAUGGCAACGCUGAGCCAAGCUUCGGCGCCUGCGCCGAUGCAGGUGUAGUGACUAGACGGCACCCACCUAAGGCCAACGGUAUGGUGAAGGCAUAGUCCAGGGAGAGGCGAAAGUCACACAAACCGG [C82U A111C A120U A145C C150G U176A],0.00275
